Molecular target: T1, A*01/LTD peptide on A*01/LTD (human)
T1 peptide: LTDEMIAQY
Test: activation reporter or marker

B1: 5245 (TCR)
alpha TRAV30 TRAJ34 CDR3: CGTEIRGKLIF
beta TRBV27 TRBJ1-5 CDR3: CASSLGFPNQPQHF
  binding result: recognises

B2: 1361 (TCR)
alpha TRAV12-1 TRAJ4 CDR3: CVVTGFSGGYNKLIF
beta TRBV14 TRBJ1-4 CDR3: CASSLVRGGFEKLFF
  binding result: recognises

B3: 11195 (TCR)
alpha TRAV19 TRAJ32 CDR3: CALRYGGATNKLIF
beta TRBV7-6 TRBJ1-2 CDR3: CASSLEGPYGYTF
  binding result: recognises

B4: 7100 (TCR)
alpha TRAV21 TRAJ43 CDR3: CAVRGGDMRF
beta TRBV6-6 TRBJ2-7 CDR3: CASTNRGDISYEQYF
  binding result: recognises

B5: 4350 (TCR)
alpha TRAV29/DV5 TRAJ42 CDR3: CAASLNYGGSQGNLIF
beta TRBV19 TRBJ1-1 CDR3: CASSSKDITVTEAFF
  binding result: no recognition

B6: 10832 (TCR)
alpha TRAV12-2 TRAJ53 CDR3: CAVNPRGGGSNYKLTF
beta TRBV29-1 TRBJ2-7 CDR3: CSAQTAWPYEQYF
  binding result: recognises

B7: 7894 (TCR)
alpha TRAV5 TRAJ39 CDR3: CAQNAGNMLTF
beta TRBV27 TRBJ1-1 CDR3: CASSLAPNTEAFF
  binding result: recognises

B8: 11253 (TCR)
alpha TRAV21 TRAJ40 CDR3: CAVRGGFGSGTYKYIF
beta TRBV28 TRBJ1-2 CDR3: CASRTTRANYGYTF
  binding result: recognises

B9: 297 (TCR)
alpha TRAV12-2 TRAJ33 CDR3: CAVSQGGVSNYQLIW
beta TRBV29-1 TRBJ2-7 CDR3: CSVFTGWPYEQYF
  binding result: recognises

B10: 7734 (TCR)
alpha TRAV21 TRAJ29 CDR3: CAVRAGNTPLVF
beta TRBV6-2 TRBJ1-1 CDR3: CASSYTTGTVIPNTEAFF
  binding result: recognises

B11: 2495 (TCR)
alpha TRAV19 TRAJ23 CDR3: CALRIYNQGGKLIF
beta TRBV5-1 TRBJ2-1 CDR3: CASSTGLAGMSSYNEQFF
  binding result: recognises

B12: 8483 (TCR)
alpha TRAV21 TRAJ20 CDR3: CAVYFRSNDYKLSF
beta TRBV20-1 TRBJ2-7 CDR3: CSATGTVNYEQYF
  binding result: recognises

B13: 475 (TCR)
alpha TRAV3 TRAJ40 CDR3: CAVSGPTSGTYKYIF
beta TRBV5-5 TRBJ1-5 CDR3: CASSLWDGGNQPQHF
  binding result: recognises

B14: 41 (TCR)
alpha TRAV12-2 TRAJ53 CDR3: CAVGRGGGSNYKLTF
beta TRBV29-1 TRBJ2-7 CDR3: CSAHGGWPYEQYF
  binding result: recognises

B15: 832 (TCR)
alpha TRAV13-1 TRAJ6 CDR3: CAAGSSGGSYIPTF
beta TRBV7-7 TRBJ2-1 CDR3: CASSLEGHRGLYNEQFF
  binding result: recognises

B16: 718 (TCR)
alpha TRAV3 TRAJ45 CDR3: CAVRQTGGGADGLTF
beta TRBV29-1 TRBJ2-2 CDR3: CSVPGLVYPGELFF
  binding result: recognises

B17: 7094 (TCR)
alpha TRAV12-3 TRAJ33 CDR3: CAMRSNYQLIW
beta TRBV30 TRBJ2-7 CDR3: CAWRLQGAGEQYF
  binding result: recognises

B18: 545 (TCR)
alpha TRAV38-1 TRAJ23 CDR3: CALRGNQGGKLIF
beta TRBV7-9 TRBJ2-7 CDR3: CASSPDGMHEQYF
  binding result: recognises

B19: 225 (TCR)
alpha TRAV12-2 TRAJ41 CDR3: CAVGNSGYALNF
beta TRBV11-2 TRBJ2-1 CDR3: CASLEGPGNEQFF
  binding result: recognises

B20: 317 (TCR)
alpha TRAV12-3 TRAJ33 CDR3: CAMRSNYQLIW
beta TRBV6-5 TRBJ2-7 CDR3: CASSYAQGEQYF
  binding result: recognises

B21: 6808 (TCR)
alpha TRAV17 TRAJ45 CDR3: CATKRGADGLTF
beta TRBV6-5 TRBJ1-2 CDR3: CASSYGGDVYGYTF
  binding result: recognises

B22: 11949 (TCR)
alpha TRAV35 TRAJ36 CDR3: CAGQLETGANNLFF
beta TRBV10-3 TRBJ2-3 CDR3: CAINPGTSGRWGTDTQYF
  binding result: recognises

B23: 11870 (TCR)
alpha TRAV12-1 TRAJ9 CDR3: CVVNRGTGGFKTIF
beta TRBV27 TRBJ1-6 CDR3: CASMLASYNSPLHF
  binding result: recognises

B24: 10813 (TCR)
alpha TRAV3 TRAJ45 CDR3: CAVRDSGGGADGLTF
beta TRBV29-1 TRBJ2-2 CDR3: CSVPGLVFPGELFF
  binding result: recognises

B25: 1650 (TCR)
alpha TRAV13-1 TRAJ9 CDR3: CAAPPGGFKTIF
beta TRBV28 TRBJ2-1 CDR3: CASTTSTGAYNEQFF
  binding result: recognises

B26: 4386 (TCR)
alpha TRAV14/DV4 TRAJ10 CDR3: CAKAGGGNKLTF
beta TRBV7-6 TRBJ2-1 CDR3: CASSLTTGQGPHNEQFF
  binding result: recognises

B27: 5469 (TCR)
alpha TRAV12-2 TRAJ53 CDR3: CAVNWGGGSNYKLTF
beta TRBV29-1 TRBJ2-7 CDR3: CSVGQGWPYEQYF
  binding result: recognises

B28: 66 (TCR)
alpha TRAV21 TRAJ41 CDR3: CAVQSSGSGYALNF
beta TRBV5-5 TRBJ2-7 CDR3: CASTKGTDSYEQYF
  binding result: recognises

B29: 4160 (TCR)
alpha TRAV35 TRAJ21 CDR3: CAGLYNFNKFYF
beta TRBV19 TRBJ1-1 CDR3: CASSTLRGDNRGTEAFF
  binding result: recognises

B30: 6548 (TCR)
alpha TRAV12-3 TRAJ33 CDR3: CASRSNYQLIW
beta TRBV6-1 TRBJ1-5 CDR3: CASSDAQAPQHF
  binding result: recognises

B31: 2123 (TCR)
alpha TRAV14/DV4 TRAJ43 CDR3: CAMRDLGDMRF
beta TRBV27 TRBJ1-2 CDR3: CASSFWDRRYGYTF
  binding result: no recognition

B32: 6265 (TCR)
alpha TRAV30 TRAJ49 CDR3: CGTAPLTGNQFYF
beta TRBV18 TRBJ1-1 CDR3: CASSHSGTAYTEAFF
  binding result: recognises

B33: 6743 (TCR)
alpha TRAV5 TRAJ15 CDR3: CAGSRTGTALIF
beta TRBV27 TRBJ2-6 CDR3: CASSTGIVTGANVLTF
  binding result: recognises

B34: 11085.2 (TCR)
alpha TRAV2 TRAJ6 CDR3: CAVEDPAGGSYIPTF
beta TRBV20-1 TRBJ2-7 CDR3: CSARGATGDFYEQYF
  binding result: recognises

B35: 8915 (TCR)
alpha TRAV29/DV5 TRAJ49 CDR3: CAAWSRGTGNQFYF
beta TRBV20-1 TRBJ2-1 CDR3: CSARDRWEGRTNEQFF
  binding result: recognises

B36: 3936 (TCR)
alpha TRAV12-3 TRAJ33 CDR3: CAMRSNYQLIW
beta TRBV27 TRBJ2-3 CDR3: CASSPSQGTQYF
  binding result: recognises

B37: 5226 (TCR)
alpha TRAV21 TRAJ49 CDR3: CAVRGNQFYF
beta TRBV6-2 TRBJ2-1 CDR3: CASSYVVVQGVPYNEQFF
  binding result: recognises

B38: 1735 (TCR)
alpha TRAV21 TRAJ11 CDR3: CAVTRGGYSTLTF
beta TRBV12-3 TRBJ2-1 CDR3: CASSLGTGGIDEQFF
  binding result: recognises

B39: 7287 (TCR)
alpha TRAV16 TRAJ17 CDR3: CALRSPAAGNKLTF
beta TRBV27 TRBJ2-5 CDR3: CASSFAEGTQYF
  binding result: recognises

B40: 11151 (TCR)
alpha TRAV12-2 TRAJ53 CDR3: CAVNSGGSGGSNYKLTF
beta TRBV29-1 TRBJ2-7 CDR3: CSAQQGWPYEQYF
  binding result: recognises

B41: 6319 (TCR)
alpha TRAV21 TRAJ22 CDR3: CAVKTSGSARQLTF
beta TRBV27 TRBJ2-3 CDR3: CASSSPPISVATDTQYF
  binding result: recognises

B42: 5170 (TCR)
alpha TRAV12-3 TRAJ33 CDR3: CAMRSNYQLIW
beta TRBV6-1 TRBJ1-5 CDR3: CASSEAQGPQHF
  binding result: recognises

B43: 386 (TCR)
alpha TRAV21 TRAJ52 CDR3: CAVRPGRGTSYGKLTF
beta TRBV19 TRBJ2-3 CDR3: CASSMGAGGAADTQYF
  binding result: recognises

B44: 684 (TCR)
alpha TRAV38-1 TRAJ31 CDR3: CAFMKLGNNARLMF
beta TRBV10-3 TRBJ1-5 CDR3: CAISGPEINQPQHF
  binding result: recognises

B45: 7156 (TCR)
alpha TRAV29/DV5 TRAJ49 CDR3: CAASGGNQFYF
beta TRBV5-5 TRBJ2-2 CDR3: CASSAPGGVDTGELFF
  binding result: recognises

B46: 5576.2 (TCR)
alpha TRAV12-3 TRAJ49 CDR3: CAMKRDQFYF
beta TRBV6-2 TRBJ2-7 CDR3: CASRTIDLLAGEYEQYF
  binding result: recognises

B47: 3155 (TCR)
alpha TRAV12-3 TRAJ33 CDR3: CAMRSNYQLIW
beta TRBV6-5 TRBJ2-1 CDR3: CASSYAQGAQFF
  binding result: recognises

B48: 6844 (TCR)
alpha TRAV12-3 TRAJ33 CDR3: CAGRSNYQLIW
beta TRBV30 TRBJ2-7 CDR3: CAWSPSGSPLEQYF
  binding result: recognises

B49: 2722 (TCR)
alpha TRAV21 TRAJ45 CDR3: CAVRGADGLTF
beta TRBV6-6 TRBJ2-7 CDR3: CASTNRASDSYEQYF
  binding result: recognises

B50: 763 (TCR)
alpha TRAV19 TRAJ32 CDR3: CALRYGGATNKLIF
beta TRBV7-6 TRBJ1-2 CDR3: CASSLEGVGGYTF
  binding result: recognises

B51: 5251 (TCR)
alpha TRAV12-2 TRAJ53 CDR3: CAVNGGGGSNYKLTF
beta TRBV29-1 TRBJ2-7 CDR3: CSVGTGWPYEQYF
  binding result: recognises

B52: 6254 (TCR)
alpha TRAV21 TRAJ10 CDR3: CAVGGGGGNKLTF
beta TRBV11-2 TRBJ1-2 CDR3: CASSLLWVGDYGYTF
  binding result: recognises

B53: 11751 (TCR)
alpha TRAV21 TRAJ49 CDR3: CAVRPPGNQFYF
beta TRBV6-4 TRBJ2-1 CDR3: CASSPVGTQGYNEQFF
  binding result: recognises

B54: 2997 (TCR)
alpha TRAV9-2 TRAJ9 CDR3: CALSALNTGGFKTIF
beta TRBV20-1 TRBJ1-1 CDR3: CSASGLTRDSPLNTEAFF
  binding result: recognises

B55: 8395 (TCR)
alpha TRAV21 TRAJ45 CDR3: CAGGGGADGLTF
beta TRBV6-6 TRBJ2-3 CDR3: CASSYPSPDTQYF
  binding result: recognises

B56: 11155 (TCR)
alpha TRAV16 TRAJ37 CDR3: CALNSNTGKLIF
beta TRBV27 TRBJ2-1 CDR3: CASSSFLLAGGGGNSNEQFF
  binding result: recognises

B57: 201 (TCR)
alpha TRAV19 TRAJ4 CDR3: CALSLSGGYNKLIF
beta TRBV6-6 TRBJ2-7 CDR3: CASSQGVIDEQYF
  binding result: recognises

B58: 5458 (TCR)
alpha TRAV29/DV5 TRAJ47 CDR3: CAATGGNKLVF
beta TRBV5-5 TRBJ2-7 CDR3: CASSHPLGVSSYEQYF
  binding result: recognises

B59: 2058 (TCR)
alpha TRAV39 TRAJ49 CDR3: CAEGNQFYF
beta TRBV7-9 TRBJ2-1 CDR3: CASSLALAGRNYNEQFF
  binding result: recognises

B60: 841.2 (TCR)
alpha TRAV25 TRAJ38 CDR3: CAGPINAGNNRKLIW
beta TRBV6-5 TRBJ2-7 CDR3: CASSLDRVRGNSYEQYF
  binding result: recognises

B61: 509 (TCR)
alpha TRAV12-1 TRAJ36 CDR3: CVVTDLFF
beta TRBV27 TRBJ2-2 CDR3: CASSPRTGVAGELFF
  binding result: recognises
